This sample holds only a part of the variants without activity.
What was measured:
biotinyl-Phe-oxazolone = experiment: self-aminoacylation, catalytic enhancement (BFO) (fold over background); higher = more active; k-Seq, kA / k0A0; sequences stand for … in GGGAAUGGAUCCACAUCUACGAAUUC…UUCACUGCAGACUUGACGAAGCUG
In short: (§1)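 Each biotinyl-aminoacyl-oxazolone, at 2–1250 μM, was incubated with mutagenized RNA pools (0.43 μM) carrying a 21-nt variable region. The 50 μL reactions contained HEPES/NaCl/KCl/MgCl2/CaCl2 buffer with 5% acetonitrile at pH 6.9–7.0 and ran for 90 minutes at room temperature. After streptavidin capture, RNA was measured by qPCR in triplicate and by Illumina sequencing, and catalytic enhancement was calculated as median kA over the uncatalyzed rate from a pseudo-first-order fit of per-sequence fraction reacted.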

biotinyl-Ile-oxazolone = experiment: self-aminoacylation, catalytic enhancement (BIO) (fold over background); higher = more active; k-Seq, kA / k0A0; sequences stand for … in GGGAAUGGAUCCACAUCUACGAAUUC…UUCACUGCAGACUUGACGAAGCUG
In short: as §1

biotinyl-Met-oxazolone = experiment: self-aminoacylation, catalytic enhancement (BMO) (fold over background); higher = more active; k-Seq, kA / k0A0; sequences stand for … in GGGAAUGGAUCCACAUCUACGAAUUC…UUCACUGCAGACUUGACGAAGCUG
In short: as §1

biotinyl-Val-oxazolone = experiment: self-aminoacylation, catalytic enhancement (BVO) (fold over background); higher = more active; k-Seq, kA / k0A0; sequences stand for … in GGGAAUGGAUCCACAUCUACGAAUUC…UUCACUGCAGACUUGACGAAGCUG
In short: as §1

biotinyl-Leu-oxazolone = experiment: self-aminoacylation, catalytic enhancement (BLO) (fold over background); higher = more active; k-Seq, kA / k0A0; sequences stand for … in GGGAAUGGAUCCACAUCUACGAAUUC…UUCACUGCAGACUUGACGAAGCUG
In short: as §1

biotinyl-Trp-oxazolone = experiment: self-aminoacylation, catalytic enhancement (BWO) (fold over background); higher = more active; k-Seq, kA / k0A0; sequences stand for … in GGGAAUGGAUCCACAUCUACGAAUUC…UUCACUGCAGACUUGACGAAGCUG
In short: as §1

Sequence	self-aminoacylation (biotinyl-Phe-oxazolone)	self-aminoacylation (biotinyl-Ile-oxazolone)	self-aminoacylation (biotinyl-Met-oxazolone)	self-aminoacylation (biotinyl-Val-oxazolone)	self-aminoacylation (biotinyl-Leu-oxazolone)	self-aminoacylation (biotinyl-Trp-oxazolone)
ACACACUUCCAGCAAUCGGUC [Fam1B.1 aminoacylation ribozyme variant]	1.19	1.47	1.31	1.3	1.3	1.6
AUUACCCUGAUCAUGGAGUGA [Fam2.1 aminoacylation ribozyme variant]	53.6	4.86	10.8	4.92	10.5	13
AUUACCCUGGUCAUCGAGUGG [Fam2.1 aminoacylation ribozyme variant]	361	16.3	56.9	18.5	55.4	52.1
CCACACUUCAAGCAAUCCUUC [Fam1B.1 aminoacylation ribozyme variant]	1.19	0.89	0.649	0.899	0.44	0.533
ACUGCCCUGGUCAUCGAGUGA [Fam2.1 aminoacylation ribozyme variant]	269	13.4	36	14.9	34.1	37.1
CUACUGCAAACAAUCCGUCUG [Fam1A.1 aminoacylation ribozyme variant]	1.27	0.953	0.806	0.801	0.817	0.876
CUACUUCAAACAAUCGGUAAG [Fam1A.1 aminoacylation ribozyme variant]	1.29	0.516	0.454	0.662	0.448	0.835
AAGUUUGCUAAUAGCCGCACG [Fam3.1 aminoacylation ribozyme variant]	1.41	1.31	1.08	1.21	1.32	2.52
CCACACUGCAAGCAAUAGGUC [Fam1B.1 aminoacylation ribozyme variant]	1.15	0.905	0.777	0.907	0.915	0.601
AGGUUAGCUAAUAGUCGCAAG [Fam3.1 aminoacylation ribozyme variant]	2.66	1.97	1.46	1.77	2.16	3.06
GAGUAUGCUAAUAGUCGCAAG [Fam3.1 aminoacylation ribozyme variant]	6.5	1.91	1.49	1.61	1.45	4.13
AUUACCCUGAUCAUCGAGUGU [Fam2.1 aminoacylation ribozyme variant]	5.33	1.81	4.23	2.24	3.28	5.04
AUUACCCUUGUCAUCAAGUGA [Fam2.1 aminoacylation ribozyme variant]	12.5	2.2	4.86	2.77	4.43	6.3
CUAGUUCACACAAUCGGUCUG [Fam1A.1 aminoacylation ribozyme variant]	2.8	1.28	1.13	1.14	1.36	1.19
AGGUUUGCUAAUAGUCGCAAA [Fam3.1 aminoacylation ribozyme variant]	3.21	2.52	2.11	2.2	2.42	1.92
CUACUUCAAACAAAGGGUCUG [Fam1A.1 aminoacylation ribozyme variant]	0.589	0.756	0.763	0.724	0.567	0.669
CCACACUUAUAGCAAUCGGUC [Fam1B.1 aminoacylation ribozyme variant]	0.926	1	0.667	0.927	0.722	0.886
AAGUUUGCUCAUUGUCGCAAG [Fam3.1 aminoacylation ribozyme variant]	3	0.875	1.09	0.968	0.923	1.89
CCACACUUCUAGCAAUAGGUC [Fam1B.1 aminoacylation ribozyme variant]	0.978	0.629	0.554	0.666	0.53	0.429
UAGGUUGCUAAUAGUCGCAAG [Fam3.1 aminoacylation ribozyme variant]	1.91	1.4	1.2	1.2	1.15	2.01
AAGUUAGCUAAUAGUCGCCAG [Fam3.1 aminoacylation ribozyme variant]	1.48	1.91	2.09	1.33	1.67	3.82
CCACCCUUCAAACAAUCGGUC [Fam1B.1 aminoacylation ribozyme variant]	81.3	1.39	1.43	1.86	2.18	38.9
CCACACUUCUAGCACUCGGUC [Fam1B.1 aminoacylation ribozyme variant]	0.649	0.819	0.748	0.783	0.702	0.913
AUUCACCUAGUUCACCGGGUG [Fam2.2 aminoacylation ribozyme variant]	15.6	2.37	3.25	2.41	3.58	3.92
AAGUAUGCUAAUAGUCGCAAU [Fam3.1 aminoacylation ribozyme variant]	1.96	1.9	2.13	1.52	1.64	1.75
AAGCGUGCUAAUAGUCGCAAG [Fam3.1 aminoacylation ribozyme variant]	4.08	2.02	2.62	2.05		2.33

Sequence	self-aminoacylation (biotinyl-Phe-oxazolone)	self-aminoacylation (biotinyl-Ile-oxazolone)	self-aminoacylation (biotinyl-Met-oxazolone)	self-aminoacylation (biotinyl-Val-oxazolone)	self-aminoacylation (biotinyl-Leu-oxazolone)	self-aminoacylation (biotinyl-Trp-oxazolone)
CCACACUUUAAACAAUCGGUC [Fam1B.1 aminoacylation ribozyme variant]	2.02	0.718	0.633	0.825	0.733	1.3
ACGUUUCCUAAUAGUCGCAAG [Fam3.1 aminoacylation ribozyme variant]	1.35	1.61	1.33	1.21	1.08	1.3
AAGUUUGCUAAUAGUCGGUAG [Fam3.1 aminoacylation ribozyme variant]	1.66	0.974	0.878	0.771	1.03	0.993
AUUACCCUGGUCACCGGGUGA [Fam2.1 aminoacylation ribozyme variant]	87.4	6.24	14.5	7.91	14.8	14.1
CCACACGUCAAGCACUCGGUC [Fam1B.1 aminoacylation ribozyme variant]	2.16	1.17	1.13	2.17	1.23	1.1
AGGUUUCCUAAUAGUCGCAAG [Fam3.1 aminoacylation ribozyme variant]	2.49	1.65	1.6	1.44	1.61	1.54
CUACUUCAAACAAUCGCCCUG [Fam1A.1 aminoacylation ribozyme variant]	0.818	1.05	1.19	1.2	0.959	0.581
CCACCCUUCAAGCAAUCAGUC [Fam1B.1 aminoacylation ribozyme variant]	5.72	0.736	0.672	0.828	0.775	1.94
ACGUUUGUUAAUAGUCGCAAG [Fam3.1 aminoacylation ribozyme variant]	3.28	1.85	2.07	1.69	2.19	1.71
CUACUUCAAACAAUUGAUCUG [Fam1A.1 aminoacylation ribozyme variant]	0.576	0.832	0.765	0.688	0.642	0.543
AUUCACCAAGCUCAUCGGGUG [Fam2.2 aminoacylation ribozyme variant]	9.43	2.4	2.13	2.92	2.92	1.79
CAACUUCAAACAAUCGUUCUG [Fam1A.1 aminoacylation ribozyme variant]	1.83	0.675	0.624	0.734	0.728	1.03
CAGUGUGCUAAUAGUCGCAAG [Fam3.1 aminoacylation ribozyme variant]	1.76	1.51	1.58	1.46	1.46	1.59
AUUCUCCUAGGUUAUCGGGUG [Fam2.2 aminoacylation ribozyme variant]	40.2	4.08	6.52	3.88	8.02	6.28
CCAAACUUCAAGCAAUCGGGC [Fam1B.1 aminoacylation ribozyme variant]		2.08	2.17	2.26		2.01
GAGUUGGCUAAUAGUCGCAAG [Fam3.1 aminoacylation ribozyme variant]	2.86	2.02	2.04	2.22		3.02
CCACACUUCAGGCAAUCGCUC [Fam1B.1 aminoacylation ribozyme variant]	17.5	2.5		2.04	2.71	
AUUCACCGAGCUCAUCGGGUG [Fam2.2 aminoacylation ribozyme variant]	17.4	2.4	2.08	3.41	2.46	
AACUUUGCUAAUAGUCGCACG [Fam3.1 aminoacylation ribozyme variant]	3.22	2.49		2.05	2.15	3.12
CCACACUUCAAGCAACCGGGC [Fam1B.1 aminoacylation ribozyme variant]	3.1	2.77		3.18	3.43	4.79
AAAUUUUCUAAUAGUCGCAAG [Fam3.1 aminoacylation ribozyme variant]	2.42	2.15		2.11	2.46	
CCAGACUUCAAGCAUUCGGUC [Fam1B.1 aminoacylation ribozyme variant]		2.03	2.12	2.16	2.08	
AUUCACCUAGGUCAUCGCCUG [Fam2.2 aminoacylation ribozyme variant]	8.71	2.01		2.44	3.01	2.11
AUUCUCCUAGGUCAUCGGGGG [Fam2.2 aminoacylation ribozyme variant]		2.7	3.48	3.29	3.88	3
CCACACCUCAAGCAUUCGGUC [Fam1B.1 aminoacylation ribozyme variant]	2.12	2.26		2.54		2.49
CUUCACCUAGUUCAUCGGGUG [Fam2.2 aminoacylation ribozyme variant]		2.15	2.54	2.27	2.87	2.53

From the supplement of paper PMC9233669
